The values that follow come from patent US20230357343A1 (ASHER BIOTHERAPEUTICS, published 2023).

The chains are these.
B1: xhCD8-hIL21 v2 (other)
chain: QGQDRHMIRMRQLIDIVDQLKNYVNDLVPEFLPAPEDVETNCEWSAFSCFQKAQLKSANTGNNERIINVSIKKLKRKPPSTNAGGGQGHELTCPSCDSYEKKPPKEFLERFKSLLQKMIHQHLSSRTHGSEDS
VH: QVHLQQSGPELVKPGASVKMSCKTSGYTFTKYTMHWVKQGHEESLEWIGHFNPNNDETKYNQKFTGKATLTVDKSSTTAYMELRSLTSDDSALYYCARDGLGLRLFADWGQGTLITVSA
VL: DIQMTQSPASLSASVGETVTITCGASENIYGALNWYQRKQGKSPQLLIFGATNLADGVSSRFSGSGSDRQYSLKISSLHPDDVATYYCQNILDTPWTFGGGTKLEIK
notes: hIgG1/kappa; IL-21 part on one heavy-chain C-terminus via (G4S)3 linker; also called exemplary IL-21 polypeptide 2
B2: xhCD8-hIL21 v1 (other)
chain: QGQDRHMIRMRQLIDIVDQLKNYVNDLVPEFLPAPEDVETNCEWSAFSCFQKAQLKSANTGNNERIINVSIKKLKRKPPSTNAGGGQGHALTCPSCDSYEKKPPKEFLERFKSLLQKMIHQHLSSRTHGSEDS
VH: QVHLQQSGPELVKPGASVKMSCKTSGYTFTKYTMHWVKQGHEESLEWIGHFNPNNDETKYNQKFTGKATLTVDKSSTTAYMELRSLTSDDSALYYCARDGLGLRLFADWGQGTLITVSA
VL: DIQMTQSPASLSASVGETVTITCGASENIYGALNWYQRKQGKSPQLLIFGATNLADGVSSRFSGSGSDRQYSLKISSLHPDDVATYYCQNILDTPWTFGGGTKLEIK
notes: hIgG1/kappa; also called exemplary IL-21 polypeptide 1
B3: xhCD8-hIL21 v6 (other)
chain: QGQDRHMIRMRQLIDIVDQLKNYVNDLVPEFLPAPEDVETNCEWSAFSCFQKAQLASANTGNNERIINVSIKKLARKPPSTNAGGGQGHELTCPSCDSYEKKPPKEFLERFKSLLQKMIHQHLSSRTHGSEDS
VH: QVHLQQSGPELVKPGASVKMSCKTSGYTFTKYTMHWVKQGHEESLEWIGHFNPNNDETKYNQKFTGKATLTVDKSSTTAYMELRSLTSDDSALYYCARDGLGLRLFADWGQGTLITVSA
VL: DIQMTQSPASLSASVGETVTITCGASENIYGALNWYQRKQGKSPQLLIFGATNLADGVSSRFSGSGSDRQYSLKISSLHPDDVATYYCQNILDTPWTFGGGTKLEIK
notes: hIgG1/kappa; IL-21 part on one heavy-chain C-terminus via (G4S)3 linker; also called exemplary IL-21 polypeptide 6
B4: xhCD8.1-hIL21 v2.7 (other)
chain: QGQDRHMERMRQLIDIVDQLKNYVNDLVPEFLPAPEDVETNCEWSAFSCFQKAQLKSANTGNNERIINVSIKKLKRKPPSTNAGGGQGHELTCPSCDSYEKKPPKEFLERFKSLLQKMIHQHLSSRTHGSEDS
VH: QVQLVQSGAEVKKPGSSVKVSCKASGGTFSSYAISWVRQAPGQGLEWMGGIIPGYATANYAQKFQGRVTITADESTSTAYMELSSLRSEDTAVYYCARDAAGIRLFADWGQGTLVTVSS
VL: DIQMTQSPSSLSASVGDRVTITCRASQSIYGALNWYQQKPGKAPKLLIYGASNLQSGVPSRFSGSGSGTDFTLTISSLQPEDFATYYCQSTYTAPWTFGGGTKVEIK
notes: hIgG1/kappa; IL-21 part on one heavy-chain C-terminus via (G4S)3 linker
B5: xhCD8.1-hIL21 v2.32 (other)
chain: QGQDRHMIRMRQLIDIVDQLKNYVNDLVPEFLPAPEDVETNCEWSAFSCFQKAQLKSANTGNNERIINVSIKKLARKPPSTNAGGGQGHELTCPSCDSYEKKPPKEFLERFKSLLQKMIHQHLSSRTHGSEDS
VH: QVQLVQSGAEVKKPGSSVKVSCKASGGTFSSYAISWVRQAPGQGLEWMGGIIPGYATANYAQKFQGRVTITADESTSTAYMELSSLRSEDTAVYYCARDAAGIRLFADWGQGTLVTVSS
VL: DIQMTQSPSSLSASVGDRVTITCRASQSIYGALNWYQQKPGKAPKLLIYGASNLQSGVPSRFSGSGSGTDFTLTISSLQPEDFATYYCQSTYTAPWTFGGGTKVEIK
notes: as for B4
B6: xhCD8.1-hIL21 v2.29 (other)
chain: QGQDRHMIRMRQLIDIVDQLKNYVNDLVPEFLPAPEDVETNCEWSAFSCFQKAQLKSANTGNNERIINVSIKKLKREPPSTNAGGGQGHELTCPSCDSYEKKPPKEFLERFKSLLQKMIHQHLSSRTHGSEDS
VH: QVQLVQSGAEVKKPGSSVKVSCKASGGTFSSYAISWVRQAPGQGLEWMGGIIPGYATANYAQKFQGRVTITADESTSTAYMELSSLRSEDTAVYYCARDAAGIRLFADWGQGTLVTVSS
VL: DIQMTQSPSSLSASVGDRVTITCRASQSIYGALNWYQQKPGKAPKLLIYGASNLQSGVPSRFSGSGSGTDFTLTISSLQPEDFATYYCQSTYTAPWTFGGGTKVEIK
notes: as for B4
B7: xhCD8.1-hIL21 v2.34 (other)
chain: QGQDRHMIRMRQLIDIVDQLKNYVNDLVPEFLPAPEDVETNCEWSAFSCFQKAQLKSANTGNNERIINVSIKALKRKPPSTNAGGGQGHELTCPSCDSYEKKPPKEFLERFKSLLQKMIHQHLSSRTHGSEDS
VH: QVQLVQSGAEVKKPGSSVKVSCKASGGTFSSYAISWVRQAPGQGLEWMGGIIPGYATANYAQKFQGRVTITADESTSTAYMELSSLRSEDTAVYYCARDAAGIRLFADWGQGTLVTVSS
VL: DIQMTQSPSSLSASVGDRVTITCRASQSIYGALNWYQQKPGKAPKLLIYGASNLQSGVPSRFSGSGSGTDFTLTISSLQPEDFATYYCQSTYTAPWTFGGGTKVEIK
notes: as for B4
B8: xhCD8.1-hIL21 v2.28 (other)
chain: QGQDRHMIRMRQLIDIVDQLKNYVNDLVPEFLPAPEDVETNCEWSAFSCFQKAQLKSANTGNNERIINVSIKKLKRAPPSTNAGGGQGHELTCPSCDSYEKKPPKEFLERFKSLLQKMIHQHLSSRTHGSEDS
VH: QVQLVQSGAEVKKPGSSVKVSCKASGGTFSSYAISWVRQAPGQGLEWMGGIIPGYATANYAQKFQGRVTITADESTSTAYMELSSLRSEDTAVYYCARDAAGIRLFADWGQGTLVTVSS
VL: DIQMTQSPSSLSASVGDRVTITCRASQSIYGALNWYQQKPGKAPKLLIYGASNLQSGVPSRFSGSGSGTDFTLTISSLQPEDFATYYCQSTYTAPWTFGGGTKVEIK
notes: as for B4
B9: xhCD8.1-hIL21 v2.56 (other)
chain: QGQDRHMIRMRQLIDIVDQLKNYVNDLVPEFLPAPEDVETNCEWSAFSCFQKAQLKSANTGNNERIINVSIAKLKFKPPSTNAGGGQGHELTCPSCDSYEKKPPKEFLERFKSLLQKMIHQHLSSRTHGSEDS
VH: QVQLVQSGAEVKKPGSSVKVSCKASGGTFSSYAISWVRQAPGQGLEWMGGIIPGYATANYAQKFQGRVTITADESTSTAYMELSSLRSEDTAVYYCARDAAGIRLFADWGQGTLVTVSS
VL: DIQMTQSPSSLSASVGDRVTITCRASQSIYGALNWYQQKPGKAPKLLIYGASNLQSGVPSRFSGSGSGTDFTLTISSLQPEDFATYYCQSTYTAPWTFGGGTKVEIK
notes: as for B4
B10: xhCD8.1-hIL21 v2.41 (other)
chain: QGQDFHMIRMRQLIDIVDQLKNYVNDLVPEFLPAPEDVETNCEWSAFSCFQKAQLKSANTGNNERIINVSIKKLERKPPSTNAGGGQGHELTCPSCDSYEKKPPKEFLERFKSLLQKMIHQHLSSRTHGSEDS
VH: QVQLVQSGAEVKKPGSSVKVSCKASGGTFSSYAISWVRQAPGQGLEWMGGIIPGYATANYAQKFQGRVTITADESTSTAYMELSSLRSEDTAVYYCARDAAGIRLFADWGQGTLVTVSS
VL: DIQMTQSPSSLSASVGDRVTITCRASQSIYGALNWYQQKPGKAPKLLIYGASNLQSGVPSRFSGSGSGTDFTLTISSLQPEDFATYYCQSTYTAPWTFGGGTKVEIK
notes: as for B4
B11: xhCD8.1-hIL21 v2.30 (other)
chain: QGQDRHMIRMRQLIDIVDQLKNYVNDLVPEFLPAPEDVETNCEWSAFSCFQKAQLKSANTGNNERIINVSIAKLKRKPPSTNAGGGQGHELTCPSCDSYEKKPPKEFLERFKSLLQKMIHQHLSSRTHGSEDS
VH: QVQLVQSGAEVKKPGSSVKVSCKASGGTFSSYAISWVRQAPGQGLEWMGGIIPGYATANYAQKFQGRVTITADESTSTAYMELSSLRSEDTAVYYCARDAAGIRLFADWGQGTLVTVSS
VL: DIQMTQSPSSLSASVGDRVTITCRASQSIYGALNWYQQKPGKAPKLLIYGASNLQSGVPSRFSGSGSGTDFTLTISSLQPEDFATYYCQSTYTAPWTFGGGTKVEIK
notes: as for B4
B12: xhCD8.1-hIL21 v2.39 (other)
chain: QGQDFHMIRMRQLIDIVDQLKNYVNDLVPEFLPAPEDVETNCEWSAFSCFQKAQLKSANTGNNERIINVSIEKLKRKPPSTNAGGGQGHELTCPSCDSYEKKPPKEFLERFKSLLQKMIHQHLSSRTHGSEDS
VH: QVQLVQSGAEVKKPGSSVKVSCKASGGTFSSYAISWVRQAPGQGLEWMGGIIPGYATANYAQKFQGRVTITADESTSTAYMELSSLRSEDTAVYYCARDAAGIRLFADWGQGTLVTVSS
VL: DIQMTQSPSSLSASVGDRVTITCRASQSIYGALNWYQQKPGKAPKLLIYGASNLQSGVPSRFSGSGSGTDFTLTISSLQPEDFATYYCQSTYTAPWTFGGGTKVEIK
notes: as for B4
B13: xhCD8.1-hIL21 v2.36 (other)
chain: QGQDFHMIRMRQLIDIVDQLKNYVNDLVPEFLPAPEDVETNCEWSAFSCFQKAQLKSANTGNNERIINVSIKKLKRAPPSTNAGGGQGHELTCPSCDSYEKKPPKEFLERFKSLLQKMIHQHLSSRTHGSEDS
VH: QVQLVQSGAEVKKPGSSVKVSCKASGGTFSSYAISWVRQAPGQGLEWMGGIIPGYATANYAQKFQGRVTITADESTSTAYMELSSLRSEDTAVYYCARDAAGIRLFADWGQGTLVTVSS
VL: DIQMTQSPSSLSASVGDRVTITCRASQSIYGALNWYQQKPGKAPKLLIYGASNLQSGVPSRFSGSGSGTDFTLTISSLQPEDFATYYCQSTYTAPWTFGGGTKVEIK
notes: as for B4
B14: xhCD8.1-hIL21 v2.58 (other)
chain: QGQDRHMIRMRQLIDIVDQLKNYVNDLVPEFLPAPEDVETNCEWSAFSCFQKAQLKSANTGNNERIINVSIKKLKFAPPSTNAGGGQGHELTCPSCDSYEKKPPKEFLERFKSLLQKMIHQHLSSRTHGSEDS
VH: QVQLVQSGAEVKKPGSSVKVSCKASGGTFSSYAISWVRQAPGQGLEWMGGIIPGYATANYAQKFQGRVTITADESTSTAYMELSSLRSEDTAVYYCARDAAGIRLFADWGQGTLVTVSS
VL: DIQMTQSPSSLSASVGDRVTITCRASQSIYGALNWYQQKPGKAPKLLIYGASNLQSGVPSRFSGSGSGTDFTLTISSLQPEDFATYYCQSTYTAPWTFGGGTKVEIK
notes: as for B4
B15: xhCD8.1-hIL21 v2.9 (other)
chain: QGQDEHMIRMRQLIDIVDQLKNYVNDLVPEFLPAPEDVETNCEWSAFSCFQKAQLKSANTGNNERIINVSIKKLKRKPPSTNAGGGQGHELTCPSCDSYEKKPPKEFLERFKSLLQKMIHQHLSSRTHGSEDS
VH: QVQLVQSGAEVKKPGSSVKVSCKASGGTFSSYAISWVRQAPGQGLEWMGGIIPGYATANYAQKFQGRVTITADESTSTAYMELSSLRSEDTAVYYCARDAAGIRLFADWGQGTLVTVSS
VL: DIQMTQSPSSLSASVGDRVTITCRASQSIYGALNWYQQKPGKAPKLLIYGASNLQSGVPSRFSGSGSGTDFTLTISSLQPEDFATYYCQSTYTAPWTFGGGTKVEIK
notes: as for B4
B16: xhCD8.1-hIL21 v2.31 (other)
chain: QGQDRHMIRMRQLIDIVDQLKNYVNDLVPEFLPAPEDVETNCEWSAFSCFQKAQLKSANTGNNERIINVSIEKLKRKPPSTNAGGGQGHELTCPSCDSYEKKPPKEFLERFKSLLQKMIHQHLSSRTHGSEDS
VH: QVQLVQSGAEVKKPGSSVKVSCKASGGTFSSYAISWVRQAPGQGLEWMGGIIPGYATANYAQKFQGRVTITADESTSTAYMELSSLRSEDTAVYYCARDAAGIRLFADWGQGTLVTVSS
VL: DIQMTQSPSSLSASVGDRVTITCRASQSIYGALNWYQQKPGKAPKLLIYGASNLQSGVPSRFSGSGSGTDFTLTISSLQPEDFATYYCQSTYTAPWTFGGGTKVEIK
notes: as for B4
B17: xhCD8.1-hIL21 v2.33 (other)
chain: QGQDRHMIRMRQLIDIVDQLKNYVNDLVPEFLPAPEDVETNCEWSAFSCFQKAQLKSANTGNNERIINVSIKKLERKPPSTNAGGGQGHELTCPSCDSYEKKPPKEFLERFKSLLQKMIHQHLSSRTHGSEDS
VH: QVQLVQSGAEVKKPGSSVKVSCKASGGTFSSYAISWVRQAPGQGLEWMGGIIPGYATANYAQKFQGRVTITADESTSTAYMELSSLRSEDTAVYYCARDAAGIRLFADWGQGTLVTVSS
VL: DIQMTQSPSSLSASVGDRVTITCRASQSIYGALNWYQQKPGKAPKLLIYGASNLQSGVPSRFSGSGSGTDFTLTISSLQPEDFATYYCQSTYTAPWTFGGGTKVEIK
notes: as for B4
B18: xhCD8.1-hIL21 v2.38 (other)
chain: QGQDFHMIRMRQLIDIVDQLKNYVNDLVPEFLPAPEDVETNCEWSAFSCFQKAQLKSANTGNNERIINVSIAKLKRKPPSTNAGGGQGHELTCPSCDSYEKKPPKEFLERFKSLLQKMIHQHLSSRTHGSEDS
VH: QVQLVQSGAEVKKPGSSVKVSCKASGGTFSSYAISWVRQAPGQGLEWMGGIIPGYATANYAQKFQGRVTITADESTSTAYMELSSLRSEDTAVYYCARDAAGIRLFADWGQGTLVTVSS
VL: DIQMTQSPSSLSASVGDRVTITCRASQSIYGALNWYQQKPGKAPKLLIYGASNLQSGVPSRFSGSGSGTDFTLTISSLQPEDFATYYCQSTYTAPWTFGGGTKVEIK
notes: as for B4
B19: xhCD8.1-hIL21 v2.40 (other)
chain: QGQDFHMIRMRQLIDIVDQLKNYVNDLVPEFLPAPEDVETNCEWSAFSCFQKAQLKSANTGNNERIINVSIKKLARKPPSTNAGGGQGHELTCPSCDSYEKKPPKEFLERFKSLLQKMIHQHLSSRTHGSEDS
VH: QVQLVQSGAEVKKPGSSVKVSCKASGGTFSSYAISWVRQAPGQGLEWMGGIIPGYATANYAQKFQGRVTITADESTSTAYMELSSLRSEDTAVYYCARDAAGIRLFADWGQGTLVTVSS
VL: DIQMTQSPSSLSASVGDRVTITCRASQSIYGALNWYQQKPGKAPKLLIYGASNLQSGVPSRFSGSGSGTDFTLTISSLQPEDFATYYCQSTYTAPWTFGGGTKVEIK
notes: as for B4
B20: xhCD8.1-hIL21 v2.37 (other)
chain: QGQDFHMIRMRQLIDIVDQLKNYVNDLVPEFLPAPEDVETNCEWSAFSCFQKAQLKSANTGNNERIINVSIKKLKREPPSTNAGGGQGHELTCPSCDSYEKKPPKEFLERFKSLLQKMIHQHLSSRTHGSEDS
VH: QVQLVQSGAEVKKPGSSVKVSCKASGGTFSSYAISWVRQAPGQGLEWMGGIIPGYATANYAQKFQGRVTITADESTSTAYMELSSLRSEDTAVYYCARDAAGIRLFADWGQGTLVTVSS
VL: DIQMTQSPSSLSASVGDRVTITCRASQSIYGALNWYQQKPGKAPKLLIYGASNLQSGVPSRFSGSGSGTDFTLTISSLQPEDFATYYCQSTYTAPWTFGGGTKVEIK
notes: as for B4
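For koff in this document: biacore SPR with anti-human IgG Fc surface and blank flow cell as reference, 10 min dissociation, double-referenced, 1:1 Langmuir fit with mass transport, triplicate runs.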
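For kon in this document: biacore SPR with anti-human IgG Fc surface and blank flow cell as reference, 10 min dissociation, double-referenced, 1:1 Langmuir fit with mass transport, triplicate runs.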

recombinant human IL-21R, extracellular domain fused to 8xHistidine tag (generated in house), sequence (Q9HBE5 other isoform, or with tags, fused parts or gaps limits assumed): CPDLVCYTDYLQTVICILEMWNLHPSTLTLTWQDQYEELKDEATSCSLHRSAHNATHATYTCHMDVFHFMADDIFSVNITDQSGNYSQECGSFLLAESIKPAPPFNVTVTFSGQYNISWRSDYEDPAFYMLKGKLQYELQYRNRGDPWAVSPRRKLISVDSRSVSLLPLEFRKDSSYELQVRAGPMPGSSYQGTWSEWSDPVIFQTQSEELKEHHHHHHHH
T1 sequence (Q9HBE5 20-232 limits assumed): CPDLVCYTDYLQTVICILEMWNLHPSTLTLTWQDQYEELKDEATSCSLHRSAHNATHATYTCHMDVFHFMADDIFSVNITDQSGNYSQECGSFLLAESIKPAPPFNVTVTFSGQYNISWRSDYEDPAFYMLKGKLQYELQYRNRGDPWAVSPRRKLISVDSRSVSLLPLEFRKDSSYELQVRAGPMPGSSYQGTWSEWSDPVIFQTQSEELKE

The first assay addresses T1, Human IL-21R (Biolegend, Catalog No. 773104) (human, UniProt Q9HBE5 20-232, limits assumed).
T1 construct: Bought protein; also called IL-21 receptor
The assay can be described thus: SPR 37 C, Fc-captured fusion.
B1 showed a Kd of 0.000122 µM, a koff of 0.0011 s⁻¹ and a kon of 8.9e+06 M⁻¹ s⁻¹. In turn, B2 displayed a Kd of 0.000117 µM, a koff of 0.00097 s⁻¹ and an association rate constant (kon) of 8.3e+06 M⁻¹ s⁻¹. The matching figures for B3: 0.000478 µM, 0.0025 s⁻¹ and 5.2e+06 M⁻¹ s⁻¹.

The next assay has as its target recombinant human IL-21R, extracellular domain fused to 8xHistidine tag (generated in house) (human, UniProt Q9HBE5 20-232). The assay can be described thus: SPR 37 C, Fc-captured fusion.
Regarding B4, the Kd amounted to 0.156 µM. On the same count and under the same terms, the value for B5 was 0.000236 µM; that for B6 was 0.0028 µM.

On to B7, for which the Kd turned out to be 0.002 µM. B8: the Kd is 0.000693 µM. Still for that read-out and setting: the value for B9 was 0.156 µM. Same read-out and setting: the result for B10 reads 0.104 µM; that for B11, 0.000419 µM; that for B12, 0.614 µM.

For B13, the Kd amounted to 0.125 µM.

On to B14, for which the Kd was determined as 0.42 µM. Still for that read-out and setting: the value for B15 was 0.42 µM; that for B16 was 0.0034 µM. Same read-out and setting: the result for B17 reads 0.0013 µM; that for B18, 0.0669 µM. For the molecule B19, the Kd is 0.0547 µM. Still for that read-out and setting: the result for B20 reads 0.601 µM.

The next assay concerns the target T1, Human IL-21R (Biolegend, Catalog No. …). Nature of the assay: SPR 37 C.
Take B1: the “fold difference in IL-21R affinity against wild type IL-21” value is no more than 2 fold. In the case of B2, the “fold difference in IL-21R affinity against wild type IL-21” value is no more than 2 fold. Same read-out and setting: the value for B3 was roughly 3 fold.

The term Kd denotes the free concentration of one partner at which half of the binding sites on the other are occupied at equilibrium, for simple one-to-one binding. For orientation: koff means the first-order rate constant of dissociation. The term kon denotes the rate constant with which the complex forms. Read a low kon as slower complex formation.
